No end group written: not given here. TAMRA = rhodamine dye label at the N-terminus (mixture of 5- and 6-isomers)
assay: Retention of arrayed peptides on a polypropylene sheet after successive washes; format: physicochemical; conditions: Control array (not washed); scan after first wash
Protocol: Further experiments were undertaken to investigate the retention of peptides P1-1 to P1-5 and P2-1 to P2-2, shown in Table 3, on a polypropylene surface.
The polypropylene sheet was wiped with 50% (v/v) aqueous acetonitrile prior to use.
8×replicate 20 nl volumes of 1 μM peptides P1-1 to P1-5 and P2-1 to P2-2 and TAMRA in dimethyl sulphoxide (DMSO) were dispensed at 1 mm spacing to a 3″×1″×1 mm polypropylene sheet using the Piezorray system (PerkinElmer LAS). 500 drops were pre-dispensed using the ‘side shoot’ option and the tuning was set to 72V for 30 μs.
The slide was imaged at 10 μm resolution on a Typhoon Trio Plus variable mode imager (Amersham Biosciences) with the green (532 nm) laser and the 580 BP 30 filter at a PMT voltage of 600 V and at normal sensitivity. The scan height was set at the platen and the samples were pressed during scanning. The fluorescence image was analysed using ImageQuant TL v2003.03 (Amersham Biosciences).
The lower half of the slide (containing the test array) was then washed in 100 ml of 1 M NaCl containing 10 mM tris-HCl (pH 8.0) for one minute and were re-scanned as described above.
The same half of the slide was then washed for a second time in 100 ml of 1 M NaCl containing 10 mM tris-HCl (pH 8.0) for 30 minutes and re-scanned as described above.
The same half of the slide was then washed for a third time in 100 ml of water for 30 minutes and re-scanned as described above.

**Q.** Which Average fluorescence does the source give for “TAMRA-F-G-F-G-F-S-F-A-F-D-F-G-F ({TAMRA}-FGFGFSFAFDFGF) [Peptide P1-2]” here?
**A.** The Average fluorescence was 200,280,129.

**Q.** Which Average fluorescence does the source give for “TAMRA-F-G-F-S-F-A-F-D-F-G-F ({TAMRA}-FGFSFAFDFGF) [Peptide P1-1]” here?
**A.** The Average fluorescence was 244,263,013.

same assay, conditions: Control array (not washed); scan after first wash; slide background subtracted

**Q.** Which Corrected signal does the source give for “TAMRA-F-G-F-G-F-S-F-A-F-D-F-G-F ({TAMRA}-FGFGFSFAFDFGF) [Peptide P1-2]” here?
**A.** The Corrected signal was 53,588,457.

**Q.** For “TAMRA-F-G-F-S-F-A-F-D-F-G-F ({TAMRA}-FGFSFAFDFGF) [Peptide P1-1]”, which Corrected signal is on record?
**A.** The Corrected signal was 97,571,341.

same assay, conditions: Control array (not washed); scan after second wash

**Q.** With “TAMRA-F-G-F-G-F-S-F-A-F-D-F-G-F ({TAMRA}-FGFGFSFAFDFGF) [Peptide P1-2]” as the substance, how does the Average fluorescence read?
**A.** The Average fluorescence was 196,080,891.

**Q.** Which Average fluorescence does the source give for “TAMRA-F-G-F-S-F-A-F-D-F-G-F ({TAMRA}-FGFSFAFDFGF) [Peptide P1-1]” here?
**A.** Its Average fluorescence is 225,863,933.

same assay, conditions: Control array (not washed); scan after second wash; slide background subtracted

**Q.** For “TAMRA-F-G-F-G-F-S-F-A-F-D-F-G-F ({TAMRA}-FGFGFSFAFDFGF) [Peptide P1-2]”, which Corrected signal is on record?
**A.** The Corrected signal was 58,801,042.

**Q.** Which Corrected signal does the source give for “TAMRA-F-G-F-S-F-A-F-D-F-G-F ({TAMRA}-FGFSFAFDFGF) [Peptide P1-1]” here?
**A.** The Corrected signal was 88,584,083.

same assay, conditions: Control array (not washed); scan after third wash

**Q.** For “TAMRA-F-G-F-G-F-S-F-A-F-D-F-G-F ({TAMRA}-FGFGFSFAFDFGF) [Peptide P1-2]”, which Average fluorescence is on record?
**A.** The Average fluorescence was 185,727,868.

**Q.** For “TAMRA-F-G-F-S-F-A-F-D-F-G-F ({TAMRA}-FGFSFAFDFGF) [Peptide P1-1]”, which Average fluorescence is on record?
**A.** The Average fluorescence was 218,342,010.

same assay, conditions: Control array (not washed); scan after third wash; slide background subtracted

**Q.** With “TAMRA-F-G-F-G-F-S-F-A-F-D-F-G-F ({TAMRA}-FGFGFSFAFDFGF) [Peptide P1-2]” as the substance, how does the Corrected signal read?
**A.** Its Corrected signal is 51,820,628.

**Q.** For “TAMRA-F-G-F-S-F-A-F-D-F-G-F ({TAMRA}-FGFSFAFDFGF) [Peptide P1-1]”, which Corrected signal is on record?
**A.** The Corrected signal was 84,434,769.

same assay, conditions: Test array; after first wash (1 M NaCl, 10 mM tris-HCl pH 8.0, one minute)

**Q.** With “TAMRA-F-G-F-G-F-S-F-A-F-D-F-G-F ({TAMRA}-FGFGFSFAFDFGF) [Peptide P1-2]” as the substance, how does the Average fluorescence read?
**A.** Its Average fluorescence is 170,078,218.

**Q.** For “TAMRA-F-G-F-S-F-A-F-D-F-G-F ({TAMRA}-FGFSFAFDFGF) [Peptide P1-1]”, which Average fluorescence is on record?
**A.** Its Average fluorescence is 157,624,537.

same assay, conditions: Test array; after first wash; slide background subtracted

**Q.** For “TAMRA-F-G-F-G-F-S-F-A-F-D-F-G-F ({TAMRA}-FGFGFSFAFDFGF) [Peptide P1-2]”, which Corrected signal is on record?
**A.** The Corrected signal was 15,580,260.

**Q.** With “TAMRA-F-G-F-S-F-A-F-D-F-G-F ({TAMRA}-FGFSFAFDFGF) [Peptide P1-1]” as the substance, how does the Corrected signal read?
**A.** Its Corrected signal is 3,126,578.

same assay, conditions: Test array; after second wash (1 M NaCl, 10 mM tris-HCl pH 8.0, 30 minutes)

**Q.** With “TAMRA-F-G-F-G-F-S-F-A-F-D-F-G-F ({TAMRA}-FGFGFSFAFDFGF) [Peptide P1-2]” as the substance, how does the Average fluorescence read?
**A.** The Average fluorescence was 135,695,639.

**Q.** For “TAMRA-F-G-F-S-F-A-F-D-F-G-F ({TAMRA}-FGFSFAFDFGF) [Peptide P1-1]”, which Average fluorescence is on record?
**A.** Its Average fluorescence is 127,216,792.

same assay, conditions: Test array; after second wash; slide background subtracted

**Q.** With “TAMRA-F-G-F-G-F-S-F-A-F-D-F-G-F ({TAMRA}-FGFGFSFAFDFGF) [Peptide P1-2]” as the substance, how does the Corrected signal read?
**A.** Its Corrected signal is 3,248,336.

**Q.** Which Corrected signal does the source give for “TAMRA-F-G-F-S-F-A-F-D-F-G-F ({TAMRA}-FGFSFAFDFGF) [Peptide P1-1]” here?
**A.** The Corrected signal was −5,230,512.

same assay, conditions: Test array; after third wash (water, 30 minutes)

**Q.** Which Average fluorescence does the source give for “TAMRA-F-G-F-G-F-S-F-A-F-D-F-G-F ({TAMRA}-FGFGFSFAFDFGF) [Peptide P1-2]” here?
**A.** Its Average fluorescence is 126,193,156.

**Q.** With “TAMRA-F-G-F-S-F-A-F-D-F-G-F ({TAMRA}-FGFSFAFDFGF) [Peptide P1-1]” as the substance, how does the Average fluorescence read?
**A.** Its Average fluorescence is 124,941,941.

same assay, conditions: Test array; after third wash; slide background subtracted

**Q.** Which Corrected signal does the source give for “TAMRA-F-G-F-G-F-S-F-A-F-D-F-G-F ({TAMRA}-FGFGFSFAFDFGF) [Peptide P1-2]” here?
**A.** The Corrected signal was 1,895,931.

**Q.** Which Corrected signal does the source give for “TAMRA-F-G-F-S-F-A-F-D-F-G-F ({TAMRA}-FGFSFAFDFGF) [Peptide P1-1]” here?
**A.** Its Corrected signal is 644,716.

assay: pH resistance of peptide deposited onto polypropylene; format: physicochemical; conditions: maximal retention at low and high pH, minimal around pH 6.5
Protocol: The pH resistance of peptide 2DOS-2 (see above) deposited onto a polypropylene hydrophobic surface was investigated:
Twelve 50 μl aliquots of peptide 2DOS-2 in 10 mM tris-HCl (pH 8.0) in 50% (v/v) aqueous acetonitrile were dried down in the wells of a Costar microtitre plate.
(§1) The peptide samples were allowed to evaporate to dryness in the dark.
The dried peptide samples in the first eleven wells were incubated with 200 μl of 100 mM phosphate buffer for 30 minutes at room temperature according to the scheme shown in Table 7:
All supernatants were pipetted off and the residual surface-bound peptides in all twelve wells were finally resuspended in 50 μl of 10,mM tris-HCl (pH 8.0) in 50% (v/v) aqueous acetonitrile and the microtitre plate was imaged at 200 μm resolution on a Typhoon Trio Plus variable mode imager (Amersham Biosciences) with the green (532 nm) laser and the 580 BP 30 filter at the PMT voltages indicated below and at normal sensitivity. The scan height was set at +3 mm and the sample was pressed during scanning.
(§2) The fluorescence images were analysed using ImageQuant TL v2003.03 (Amersham Biosciences).
Quantification data for peptide 2DOS-2 retention (using data from the 300V scan) are given in Table 8 and graphically in FIG. 16: […]

**Q.** Which “retention on a polypropylene surface versus pH (in words)” value does the source give for “N-TAMRA-Phe-Asp-Phe-Ala-Phe-Ser-Phe-Lys-Phe-C ({TAMRA}-FDFAFSFKF; not fully specified (C-terminus)) [Peptide 2DOS-2]” here?
**A.** The value was “stable over a broad range of pH values”.

assay: Time-dependent persistence of peptide on polypropylene in aqueous buffer; format: physicochemical; conditions: 1 M NaCl/10 mM tris-HCl (pH 8.0)
Protocol: The time-dependent persistence of peptide 2DOS-2 (see above) deposited onto a polypropylene hydrophobic surface in the presence of aqueous buffer was investigated as shown below:
Twelve 100 μl aliquots of 5 μM peptide 2DOS-2 in 5 mM tris-HCl (pH 8.0) in 75% (v/v) aqueous acetonitrile were dispensed to the wells of the top row of a Costar microtitre plate.
as §1
The dried peptide samples in wells 1-10 were incubated with 250 μl of 1 M NaCl in 10 mM tris-HCl (pH 8.0) for the time indicated below at room temperature. All supernatants were pipetted up and down 8 times after incubation and the supernatants were then removed and placed in the wells of the bottom row of the microtitre plate. […]
as §2
Fluorescence data for the time-dependent persistence of peptide 2DOS-2 deposited onto a polypropylene hydrophobic surface in the presence of aqueous buffer are shown in FIG. 17: […]

**Q.** With “N-TAMRA-Phe-Asp-Phe-Ala-Phe-Ser-Phe-Lys-Phe-C ({TAMRA}-FDFAFSFKF; not fully specified (C-terminus)) [Peptide 2DOS-2]” as the substance, how does the “retention on a hydrophobic polypropylene surface over time (in words)” value read?
**A.** Its value is “stable for extended periods of time”.
